The results in this text go back to patent US6962973B1, “Porcine α2δ-1 calcium channel subunit cDNA and soluble secreted α2δ-1 subunit polypeptides” (Warner-Lambert Company, priority 1999, dated 2005).

This test in a line: [3H]gabapentin binding of C-terminally truncated porcine α2δ-1 subunit mutants expressed in COS-7 cells. The conditions noted are these: C-terminal deletions of the δ component, residues of SEQ ID NO:5. As to the method:
All media contained 50 units/ml penicillin and 50 microgramm per ml streptomycin. COS-7 cells were maintained in Dulbecco's modified Eagle's medium+glutamax, 10% fetal bovine serum (gamma irradiated) in a 37° C./5% CO2 incubator and passaged by trypsinization. For transient expression experiments, 150-mm culture dishes were seeded with […] and incubated for 16 h. Cells were then washed twice with 30 ml of optiMEM-1 and transfected (t=0 h) with 30 microgramm of plasmid DNA by lipofectamine-mediated transfection in 21 ml of optiMEM-1. At t=6 h, a further 21 ml of optiMEM-1 was added. At t=24 h, the medium was replaced with 42 ml of optiMEM-1. At t=48 h, the cells were washed twice with 30 ml of phosphate-buffered saline and then harvested in 3 ml of buffer A ([…], 1 mM EGTA, 20% glycerol, 10 mm HEPES, pH 7.4, at 4° C.) plus 0.1 mM phenymethylsulfonyl fluoride using a cell scraper.
All subsequent operations were performed at 4° C. The cells were rotated on a Spiramix (Denley Instruments) for 30 min, centrifuged at 20,000×g for 5 min, resuspended in 1 ml of buffer A, recentrifuged at 20,000×g for 5 min, and finally resuspended in 400 microliter of buffer A. Membrane preparations were stored at −70° C. until required.
Protein concentrations were determined by the method of Bradford using bovine serum albumin as a standard. [^3H]Gabapentin binding assays were performed as described previously. For saturation analysis, incubations were performed in duplicate. All other incubations were performed in triplicate. SDS-polyacrylamide gel electrophoresis and Western blotting were performed using the Novex gel and buffer system (Novex Europe, Frankfurt, Germany). Molecular weights were determined by reference to Kaleidoscope markers (Bio-Rad). Detection was performed using the ECL system (Amersham).

B1: mutant extending to residue 1063: C-terminally truncated porcine α2δ-1 subunit, residues 1064 to 1091 deleted (protein, listed as Sus scrofa)
chain: MAAGCLLALTLTLFQSLLIGPSSQEPFPSAVTIKSWVDKMQEDLVTLAKTASGVNQLVDIYEKYQDLYTVEPNNARQLVEIAARDIEKLLSNRSKALVRLALEAEKVQAAHQWREDFASNEVVYYNAKDDLDPEKNDSEPGSQRIKPVFIDDANFGRQISYQHAAVHIPTDIYEGSTIVLNELNWTSALDEVFKKNREEDPSLLWQVFGSATGLARYYPASPWVDNSRTPNKIDLYDVRRRPWYIQGAASPKDMLILVDVSGSVSGLTLKLIRTSVSEMLETLSDDDFVNVASFNSNAQDVSCFQHLVQANVRNKKVLKDAVNNITAKGITDYKKGFSFAFEQLLNYNVSRANCNKIIMLFTDGGEERAQEIFAKYNKDKKVRVFTFSVGQHNYDRGPIQWMACENKGYYYEIPSIGAIRINTQEYLDVLGRPMVLAGDKAKQVQWTNVYLDALELGLVITGTLPVFNITGQNENKTNLKNQLILGVMGVDVSLEDIKRLTPRFTLCPNGYYFAIDPNGYVLLHPNLQPKNPKSQEPVTLDFLDAELENDIKVEIRNKMIDGESGEKTFRTLVKSQDERYIDKGNRTYTWTPVNGTDYSLALVLPTYSFYYIKAKIEETITQARSKKGKMKDSETLKPDNFEESGYTFIAPRDYCNDLKISDNNTEFLLNFNEFIDRKTPNNPSCNTDLINRVLLDAGFTNELVQNYWSKQKNIKGVKARFVVTDGGITRVYPKEAGENWQENPETYEDSFYKRSLDNDNYVFTAPYFNKSGPGAYESGIMVSKAVEIYIQGKLLKPAVVGIKIDVNSWIENFTKTSIRDPCAGPVCDCKRNSDVMDCVILDDGGFLLMANHDDYTNQIGRFFGEIDPSLMRHLVNISVYAFNKSYDYQSVCEPGAAPKQGAGHRSAYVPSIADILHIGWWATAAAWSILQQFLLSLTFPRLLEAVEMEDDDFTASLSKQSCITEQTQYFFDNDSKSFSGVLDCGNCSRIFHVEKLMNTNLIFIMVESKGTCPCDTRLLIQAEQTSDGPDPCDMVKQPRYRKGPDVCFDNNALEDYTDCGGVS
With B1, the “[^3H]gabapentin binding” value was “exhibit gabapentin binding activity”.

B2: mutant extending to residue 1018: C-terminally truncated porcine α2δ-1 subunit, residues 1019 to 1091 deleted (protein, listed as Sus scrofa)
chain: MAAGCLLALTLTLFQSLLIGPSSQEPFPSAVTIKSWVDKMQEDLVTLAKTASGVNQLVDIYEKYQDLYTVEPNNARQLVEIAARDIEKLLSNRSKALVRLALEAEKVQAAHQWREDFASNEVVYYNAKDDLDPEKNDSEPGSQRIKPVFIDDANFGRQISYQHAAVHIPTDIYEGSTIVLNELNWTSALDEVFKKNREEDPSLLWQVFGSATGLARYYPASPWVDNSRTPNKIDLYDVRRRPWYIQGAASPKDMLILVDVSGSVSGLTLKLIRTSVSEMLETLSDDDFVNVASFNSNAQDVSCFQHLVQANVRNKKVLKDAVNNITAKGITDYKKGFSFAFEQLLNYNVSRANCNKIIMLFTDGGEERAQEIFAKYNKDKKVRVFTFSVGQHNYDRGPIQWMACENKGYYYEIPSIGAIRINTQEYLDVLGRPMVLAGDKAKQVQWTNVYLDALELGLVITGTLPVFNITGQNENKTNLKNQLILGVMGVDVSLEDIKRLTPRFTLCPNGYYFAIDPNGYVLLHPNLQPKNPKSQEPVTLDFLDAELENDIKVEIRNKMIDGESGEKTFRTLVKSQDERYIDKGNRTYTWTPVNGTDYSLALVLPTYSFYYIKAKIEETITQARSKKGKMKDSETLKPDNFEESGYTFIAPRDYCNDLKISDNNTEFLLNFNEFIDRKTPNNPSCNTDLINRVLLDAGFTNELVQNYWSKQKNIKGVKARFVVTDGGITRVYPKEAGENWQENPETYEDSFYKRSLDNDNYVFTAPYFNKSGPGAYESGIMVSKAVEIYIQGKLLKPAVVGIKIDVNSWIENFTKTSIRDPCAGPVCDCKRNSDVMDCVILDDGGFLLMANHDDYTNQIGRFFGEIDPSLMRHLVNISVYAFNKSYDYQSVCEPGAAPKQGAGHRSAYVPSIADILHIGWWATAAAWSILQQFLLSLTFPRLLEAVEMEDDDFTASLSKQSCITEQTQYFFDNDSKSFSGVLDCGNCSRIFHVEKLMNTNLIFIMVESKGTCPCDTRL
Regarding B2, the “[^3H]gabapentin binding” value is “exhibit gabapentin binding activity”.

B3: mutant extending to residue 1036: C-terminally truncated porcine α2δ-1 subunit, residues 1037 to 1091 deleted (protein, listed as Sus scrofa)
chain: MAAGCLLALTLTLFQSLLIGPSSQEPFPSAVTIKSWVDKMQEDLVTLAKTASGVNQLVDIYEKYQDLYTVEPNNARQLVEIAARDIEKLLSNRSKALVRLALEAEKVQAAHQWREDFASNEVVYYNAKDDLDPEKNDSEPGSQRIKPVFIDDANFGRQISYQHAAVHIPTDIYEGSTIVLNELNWTSALDEVFKKNREEDPSLLWQVFGSATGLARYYPASPWVDNSRTPNKIDLYDVRRRPWYIQGAASPKDMLILVDVSGSVSGLTLKLIRTSVSEMLETLSDDDFVNVASFNSNAQDVSCFQHLVQANVRNKKVLKDAVNNITAKGITDYKKGFSFAFEQLLNYNVSRANCNKIIMLFTDGGEERAQEIFAKYNKDKKVRVFTFSVGQHNYDRGPIQWMACENKGYYYEIPSIGAIRINTQEYLDVLGRPMVLAGDKAKQVQWTNVYLDALELGLVITGTLPVFNITGQNENKTNLKNQLILGVMGVDVSLEDIKRLTPRFTLCPNGYYFAIDPNGYVLLHPNLQPKNPKSQEPVTLDFLDAELENDIKVEIRNKMIDGESGEKTFRTLVKSQDERYIDKGNRTYTWTPVNGTDYSLALVLPTYSFYYIKAKIEETITQARSKKGKMKDSETLKPDNFEESGYTFIAPRDYCNDLKISDNNTEFLLNFNEFIDRKTPNNPSCNTDLINRVLLDAGFTNELVQNYWSKQKNIKGVKARFVVTDGGITRVYPKEAGENWQENPETYEDSFYKRSLDNDNYVFTAPYFNKSGPGAYESGIMVSKAVEIYIQGKLLKPAVVGIKIDVNSWIENFTKTSIRDPCAGPVCDCKRNSDVMDCVILDDGGFLLMANHDDYTNQIGRFFGEIDPSLMRHLVNISVYAFNKSYDYQSVCEPGAAPKQGAGHRSAYVPSIADILHIGWWATAAAWSILQQFLLSLTFPRLLEAVEMEDDDFTASLSKQSCITEQTQYFFDNDSKSFSGVLDCGNCSRIFHVEKLMNTNLIFIMVESKGTCPCDTRLLIQAEQTSDGPDPCDMVK
Turning to B3, the “[^3H]gabapentin binding” value was “exhibit gabapentin binding activity”.
